Source: the MegaScale stability set (Tsuboyama et al. 2023)

B1: r4_43_TrROS_Hall (parent)
chain: DLVTIKVPLENLEEIKKAAEKAGFKIVSISYDKENKEVTIVIEKKK

Variants of: B1
Test: folding stability dG (cDNA display proteolysis); higher = more stable
Settings: PBS, room temperature

Folding stability dG [kcal/mol]: each site, then its substitutions
T39: E 3.22, W 4.01, P -0.044, R 3.57, C 3.2, A 3.4, H 3.47, N 3.14, F 3.69, G 2.85, S 3.54, Y 3.83, Q 3.36, L 3.36, V 3.56, I 3.66, D 3.21, M 3.52, K 3.42
K44: A 3.79, Q 3.52, T 4.11, Y 4.68, H 3.73, F 4.48, D 3.54, S 3.49, I 3.93, C 3.76, V 3.92, G 3.73, L 3.96, M 3.96, P 3.55, E 3.58, R 3.83, N 3.53, W 4.25
V38: D 0.46, A 3.79, H 2.85, I 3.66, G 3.18, Q 1.74, R 1.31, K 1.02, F 3.57, M 3.43, L 3.71, T 3.23, W 4.33, E 0.699, C 3.57, N 2.11, S 3.12, P 1.79, Y 4.2
I40: N -0.494, S 0.271, W 1.82, Y 2.75, Q 0.343, A 2.62, F 3.93, V 3.81, C 2.81, T 1.73, H -0.04, M 3.77, G 0.285, L 3.98
E37: K 3.45, Y 3.9, M 3.64, I 3.85, W 3.92, S 3.81, G 3.72, P 2.62, Q 3.59, V 4.14, T 3.88, R 3.53, H 3.86, N 3.62, L 3.62
K45: Q 3.73, S 3.72, I 3.87, G 3.87, N 3.84, H 3.86, C 3.87, D 3.94, L 3.95, T 3.99, P 3.64, R 3.94, Y 4.47, F 4.41, M 3.93, W 4.49, E 3.5, A 3.92, V 4.13
E43: D 3.9, K 3.36, C 4.02, A 3.71, N 3.78, R 3.76, M 4.04, G 3.26, V 3.63, W 4.7, S 3.51, P 2.34, Q 3.64, T 3.92, F 4.59, I 3.54, L 4.39, Y 4.32, H 3.88
V41: E 3.48, M 3.48, N 3.34, A 3.49, T 3.42, Y 3.71, R 3.47, Q 3.5, S 3.51, C 3.33, I 3.64, G 3.4, H 3.26, F 3.76, D 2.77, K 3.47, W 4.13, L 3.91
I42: M 3.85, P -0.342, L 3.79, R 2.38, E 1.39, D 0.038, W 4.19, A 3.53, H 2.83, G 2.97, Q 2.84, F 4.17, V 3.46, Y 4.47, S 2.75, T 3.03, N 0.933, K 2.34, C 3.24
K46: E 3.84, G 3.38, F 4.31, A 3.52, C 3.83, D 3.55
